The results in this text go back to patent US20260265358A1 (BYOMASS, published 2026).

Experiment [1] concerns the target T1, Human Activin A Fc (human, UniProt P03970 309-424 (pig entry)).
T1 construct: also called human Activin A-Fc fusion; human Activin A-Fc antigen; not shown: Fc part
T1 sequence: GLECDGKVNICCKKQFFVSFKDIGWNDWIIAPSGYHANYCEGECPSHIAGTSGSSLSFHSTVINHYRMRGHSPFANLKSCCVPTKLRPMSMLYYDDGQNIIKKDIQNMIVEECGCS
The experiment can be described thus: Octet BLI, IgG, avid. How it is done:
ForteBio affinity measurements were performed on an Octet HTX generally as previously described (see, e.g., Estep et al, Mabs 5(2), 270-278 (2013)). Briefly, ForteBio affinity measurements were performed by loading IgGs on-line onto AHC sensors. Sensors were equilibrated off-line in assay buffer for 30 min and then monitored on-line for 60 seconds for baseline establishment. Sensors with loaded IgGs were exposed to 100 nM antigen for 3 minutes, and afterwards were transferred to assay buffer for 3 min for off-rate measurement. All kinetics were analyzed using the 1:1 binding model.
Binding affinity and epitope binning assays were performed with a ForteBio instrument as described herein.
For orientation: Biolayer interferometry detects binding as a change in optical thickness at a sensor tip.

The target of a further experiment is T2, BMP9 (UniProt Q9UK05 320-429).
T2 sequence (looked up): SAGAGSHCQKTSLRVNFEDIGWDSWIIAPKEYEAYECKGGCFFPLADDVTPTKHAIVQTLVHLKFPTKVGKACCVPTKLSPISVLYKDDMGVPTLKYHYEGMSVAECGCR
The experiment can be described thus: Octet BLI, IgG, avid.

Another experiment deals with T3, GDF15 Fc (UniProt Q99988 197-308, limits assumed).
T3 construct: not shown: Fc part
T3 sequence (looked up): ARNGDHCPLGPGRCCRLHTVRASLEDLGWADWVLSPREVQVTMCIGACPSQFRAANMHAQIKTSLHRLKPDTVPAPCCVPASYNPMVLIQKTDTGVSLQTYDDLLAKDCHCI
The experiment can be described thus: Octet BLI, IgG, avid.

The next experiment has as its target T4, BMP10 (UniProt O95393 317-424).
T4 sequence (looked up): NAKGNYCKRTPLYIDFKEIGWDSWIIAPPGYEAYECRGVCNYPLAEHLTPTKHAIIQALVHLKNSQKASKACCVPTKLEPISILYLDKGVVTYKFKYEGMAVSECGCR
The experiment can be described thus: Octet BLI, IgG, avid.

The target in a further experiment is T5, Human GDF10 (human, UniProt P55107 369-478).
T5 sequence (looked up): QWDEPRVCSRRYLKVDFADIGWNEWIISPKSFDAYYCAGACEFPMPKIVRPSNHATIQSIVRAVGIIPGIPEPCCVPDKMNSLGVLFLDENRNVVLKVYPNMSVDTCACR
The experiment can be described thus: Octet BLI, IgG, avid.

For another experiment, the target named is T6, Human GDNF (human, UniProt P39905 78-211).
T6 sequence (looked up): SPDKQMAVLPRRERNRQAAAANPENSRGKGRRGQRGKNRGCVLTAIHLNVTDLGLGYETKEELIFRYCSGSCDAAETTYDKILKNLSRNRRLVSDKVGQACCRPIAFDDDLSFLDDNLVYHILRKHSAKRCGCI
The experiment can be described thus: Octet BLI, IgG, avid.

The next experiment deals with Human GDF8 (human, UniProt O14793 267-375). The experiment can be described thus: Octet BLI, IgG, avid.
For a further experiment, the target named is Human GDF11 (human, UniProt O95390 299-407). The experiment can be described thus: Octet BLI, IgG, avid.
Sequence of Human GDF11 (O95390 299-407 limits assumed): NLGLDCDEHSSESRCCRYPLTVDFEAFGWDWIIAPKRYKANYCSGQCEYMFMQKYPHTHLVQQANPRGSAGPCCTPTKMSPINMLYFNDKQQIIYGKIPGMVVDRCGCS
Experiment [2] deals with T7, biotinylated Human Activin A (human, UniProt P03970 309-424 (pig entry), biotinylated (EZ-Link Sulfo-NHS-Biotinylation Kit)).
T7 sequence: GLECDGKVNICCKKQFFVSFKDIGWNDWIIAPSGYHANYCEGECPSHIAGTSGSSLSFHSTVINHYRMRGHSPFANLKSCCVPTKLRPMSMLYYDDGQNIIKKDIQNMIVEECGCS
The experiment can be described thus: SPR (Biacore 8K), antigen captured, Fab analyte. As to the method:
Kinetic analysis was conducted at 25° C. in HBS-EP+ running buffer (10 mM HEPES pH 7.4, 150 mM NaCl, 3 mM EDTA, 0.05% Surfactant P20) using a Biacore 8K optical biosensor (Cytiva, Marlborough, MA). The sample compartment was maintained at 10° C. for the duration of the experiment. The Biacore 8K can analyze up to 8 separate interactions in a single cycle.
Each experiment cycle began with an injection (300 s at 2 μL/min) overflow cells 1 and 2 of a 1:100 solution of biotin CAPture reagent (Cytiva) in running buffer. This was followed by an injection (45 s at 10.0 μL/min) of biotinylated human ACTIVIN A (5 nM) overflow cell 2. Upon capture of ACTIVIN A to the sensor surface, a single concentration of Fab ranging from 0.111-81.0 nM was injected (300 s at 30 μL/min) overflow cells 1 and 2. The dissociation of the antibodies were monitored for 3420 s. Finally, an injection (120 s at 10 μL/min) of regeneration solution (6 M Guanidine-HCl in 0.25 M NaOH) overflow cells 1 and 2 prepared the sensor surface for another cycle. Several blank buffer samples were injected (300 s at 30 μL/min) overflow cells 1 and 2 throughout the duration of the experiment and used for reference surface subtraction—each were monitored for the same amount of dissociation time (3420 s) and regenerated under the same conditions as those for the Fab sample injections.
The anti-Activin antibodies identified in Example 1 were characterized. First, binding kinetics of the anti-Activin antibodies was assessed with a Surface Plasmon Resonance assay (Biacore).
In general terms: In SPR one partner is held on a chip, and binding of the other changes the refractive index at the surface.

Experiment [3] concerns the target T1, Human Activin A Fc. The experiment can be described thus: Octet BLI, Fab, monovalent.
A further experiment deals with T8, Activin B (UniProt P09529 293-407).
T8 sequence (looked up): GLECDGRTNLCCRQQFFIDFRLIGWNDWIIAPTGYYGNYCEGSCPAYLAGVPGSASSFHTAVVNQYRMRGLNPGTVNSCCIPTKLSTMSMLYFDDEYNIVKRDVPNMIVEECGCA
The experiment can be described thus: Octet BLI, IgG, avid.

Experiment [4] has as its target T9, Activin A (ligand of the Activin 2B Receptor/SMAD reporter assay) (UniProt P08476 311-426).
T9 sequence (looked up): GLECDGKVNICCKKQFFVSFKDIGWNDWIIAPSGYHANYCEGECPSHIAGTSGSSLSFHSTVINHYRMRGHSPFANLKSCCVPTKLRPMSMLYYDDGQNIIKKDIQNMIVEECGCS
The experiment can be described thus: cell-based or functional assay.

B1: anti-Activin A antibody Clone P (IgG) (antibody, V domains shown)
VH: QVQLVQSGAEVKKPGSSVKVSCKASGGTFDDYAISWVRQAPGQGLEWMGGIIPRFGIANYAQKFQGRVTITADESTSTAYMELSSLRSEDTAVYYCARPPSSGSDWGQGTLVTVSS
VL: DIQMTQSPSSVSASVGDRVTITCRASQGIDSWLAWYQQKPGKAPKLLIYAASSLQSGVPSRFSGSGSGTDFTLTISSLQPEDFATYYCQQVHSFPITFGGGTKVEIKR
notes: IgG format; also called Antibody P
B1: the affinity in the experiment with Human Activin A Fc [1], expressed as Kd, was 1.28 nM. Moreover, the binding result with BMP9, in the experiment with GDF15 Fc, with BMP10, in the experiment with Human GDF10, with Human GDNF and in the experiment with Human GDF8 was “no binding (tested: 100 nM antigen)” each time. Moreover, the binding result with Human GDF11 was “no binding (tested: 100 nM antigen)”.

B2: Fab of anti-Activin A antibody Clone K (Fab, V domains shown)
VH: QVQLVQSGAEVKKPGSSVKVSCKASGGTSSSYAISWVRQAPGQGLEWMGYIIPAFGTANYAQKFQGRVTITADESTSTAYMELSSLRSEDTAVYYCARPVRTYPLGKYFYHWGQGTLVTVSS
VL: EIVLTQSPATLSLSPGERATLSCRASQSVSSYLAWYQQKPGQAPRLLIYDASNRATGIPARFSGSGSGTDFTLTISSLEPEDFAVYYCQQDSIFPPYTFGGGTKVEIK
notes: Fab format; only VH and VL are tied to the clone; also called Clone K Fab
As for B2, in experiment [2], the equilibrium dissociation constant (Kd) (commonly the equilibrium constant for the complex coming apart) was determined as 0.0367 nM, the koff (commonly the rate constant with which the complex falls apart) came to 0.000119 s⁻¹ and the on-rate constant (kon) (commonly the second-order rate constant of association) is 3.25e+06 M⁻¹ s⁻¹. In the experiment with Human Activin A Fc [3], this molecule displayed a dissociation constant Kd of 0.925 nM.

B3: anti-Activin A antibody Clone R (IgG) (antibody, V domains shown)
VH: QVQLVQSGAEVKKPGSSVKVSCKASGGSFSPYTISWVRQAPGQGLEWMGGIILTSGTANYAQKFQGRVTITADESTSTAYMELSSLRSEDTAVYYCARGGPLSGWRASYYYWGQGTLVTVSS
VL: not shown
notes: IgG format; also called Antibody R
In turn, B3 gave a Kd with Human Activin A Fc [1] of 0.6 nM. For the same molecule, the binding result with BMP9, in the experiment with Activin B, with GDF15 Fc, with BMP10, with Human GDF10 and in the experiment with Human GDNF was “no binding (tested: 100 nM antigen)” throughout. The binding result with Human GDF8 and with Human GDF11 was “no binding (tested: 100 nM antigen)” throughout.

B4: Fab of anti-Activin A antibody Clone Q (Fab, V domains shown)
VH: QVQLVQSGAEVKKPGSSVKVSCKASGGSFSPYTWSWVRQAPGQGLEWMGGIIPISGTANTAQKFQGRVTITADESTSTAYMELSSLRSEDTAVYYCARGGPLSGWRASYYYWGQGTLVTVSS
VL: not shown
notes: Fab format; only VH and VL are tied to the clone; also called Clone Q Fab
In experiment [2], B4 showed a Kd of 0.24 nM, a koff of 0.000175 s⁻¹ and an on-rate constant (kon) of 728000 M⁻¹ s⁻¹. In addition, the affinity with Human Activin A Fc [3], expressed as Kd, was 1.75 nM.

B5: anti-Activin A antibody Clone J (IgG) (antibody, V domains shown)
VH: EVQLVQSGAEVKKPGSSVKVSCKASGGTFSLYAISWVRQAPGQGLEWMGGIIPYFGTANYAQKFQGRVTITADESTSTAYMELSSLRSEDTAVYYCARGGSGYSTSWGSSLYWGQGTLVTVSS
VL: EIVLTQSPGTLSLSPGERATLSCRASQSVSSSYLAWYQQKPGQAPRLLIYGAFSRATGIPDRFSGSGSGTDFTLTISRLEPEDFAVYYCQQSGVFPYTFGGGTKVEIKR
Take B5: the “Activin A-ActRIIB SMAD IC50 pM” value in experiment [4] stood at 41.7 pM.

B6: anti-Activin A antibody Clone M (IgG) (antibody, V domains shown)
VH: QLQLQESGPGLVKPSETLSLTCTVSGGSISSSDYYWGWIRQPPGKGLEWIGSIYYPANTYYNPSLKSRVTISVDTSKNQFSLKLSSVTAADTAVYYCARGYWNYGMDVWGQGTTVTVSS
VL: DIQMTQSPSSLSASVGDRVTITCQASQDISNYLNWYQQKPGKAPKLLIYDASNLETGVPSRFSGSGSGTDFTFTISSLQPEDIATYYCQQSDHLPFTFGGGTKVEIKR
notes: IgG format; also called Antibody M
With B6, the “Activin A-ActRIIB SMAD IC50 pM” value in experiment [4] stood at 719 pM. Also, the equilibrium dissociation constant (Kd) amounted to 1 nM in the experiment with Human Activin A Fc [1] and 9.58 nM with Activin B. In addition, the binding result with BMP9, in the experiment with GDF15 Fc, with BMP10, with Human GDF10, in the experiment with Human GDNF and with Human GDF8 was “no binding (tested: 100 nM antigen)” each time. Also, the binding result in the experiment with Human GDF11 was “no binding (tested: 100 nM antigen)”.

B7: anti-Activin A antibody Clone N (IgG) (antibody, V domains shown)
VH: QLQLQESGPGLVKPSETLSLTCTVSGGSISSSDYYWGWIRQPPGKGLEWIGSIYYPASTYYNPSLKSRVTISVDTSKNQFSLKLSSVTAADTAVYYCARGYWNYGMDVWGQGTTVTVSS
VL: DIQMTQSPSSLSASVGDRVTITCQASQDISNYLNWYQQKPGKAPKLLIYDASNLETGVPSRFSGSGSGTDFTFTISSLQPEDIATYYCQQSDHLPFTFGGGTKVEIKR
notes: IgG format; also called Antibody N
On to B7, for which the “Activin A-ActRIIB SMAD IC50 pM” value in experiment [4] stood at 241 pM. The dissociation constant Kd is 1.26 nM with Human Activin A Fc [1] and 6.98 nM in the experiment with Activin B. For the same molecule, the binding result with BMP9, with GDF15 Fc, with BMP10, in the experiment with Human GDF10, in the experiment with Human GDNF and with Human GDF8 was “no binding (tested: 100 nM antigen)” each time. Besides, the binding result with Human GDF11 is recorded as “no binding (tested: 100 nM antigen)”.

B8: anti-Activin A antibody Clone D (IgG) (antibody, V domains shown)
VH: QVQLVQSGAEVKKPGASVKVSCKASGYTFFGYSMHWVRQAPGQGLEWMGVINPSSGDTNYAQKFQGRVTMTRDTSISTAYMELSRLRSDDTAVYYCARARDIAALGLGAFDYWGQGTLVTVSS
VL: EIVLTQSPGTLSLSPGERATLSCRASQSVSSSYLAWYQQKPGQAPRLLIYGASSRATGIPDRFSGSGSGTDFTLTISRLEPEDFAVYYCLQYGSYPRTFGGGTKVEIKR
notes: IgG format; also called Antibody D
For B8, the values for the equilibrium dissociation constant (Kd) with Human Activin A Fc [1], with Activin B and with Human GDF11 were 0.515 nM, 153 nM and 23.4 nM, respectively. Moreover, the binding result with BMP9, with GDF15 Fc, with BMP10, with Human GDF10, with Human GDNF and with Human GDF8 was “no binding (tested: 100 nM antigen)” each time.
